Measured values from PMC9781616.

Target: Echovirus 11 (E11) strain 18-2135 full virus particle (capsid of VP1-4) (echovirus 11 (strain 18-2135))
Assay: cryo-EM structure

Question: How did the DAF occupancy turn out when “Decay-accelerating factor (DAF) full-length ectodomain, short consensus repeats SCR 1-4 (from UniProt P08174 35-285) (receptor)” was run?
Answer: 31.5%

Question: And the stoichiometry N (DAF molecules per particle)?
Answer: 20
